The supplement of paper PMC6757056
± gives the standard deviation of the averaged measurements.

B1: library; a variant is named by its letters at N, in order (parent)
chain: GCUGUCACCGGUGCUUGGUACGUUAUAUUCAGCCGGUCUGAUGAGUCUNNNNNNAGACGAAACAGC

Assays:
(6R,S)-folinic acid [1] = variants of: B1; experiment: FACS-Seq fitted mean relative fluorescence mCherry/BFP without ligand (log10 relative fluorescence); HEK293T overexpressing SLC46A1; higher = higher reporter protein expression; details: without (6R,S)-folinic acid; ligand present: no
Method in brief: (§1)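 Genomic DNA from 6 mCherry/BFP sort bins was PCR-amplified, barcoded and sequenced on MiSeq. The sorted cells were enriched HEK293T libraries, lentivirally transduced with a ribozyme-switch mCherry reporter and an EF1α-BFP marker, incubated with or without ligand for 48 h. Fluorescence derives from a normal fit to the bin counts. The fit was on log10(mCherry/BFP), and means were scaled to five spiked-in control ribozymes.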

(6R,S)-folinic acid [2] = variants of: B1; experiment: normalized RNA/DNA level without ligand (relative to sTRSVctl = 100) (log10 (% of sTRSVctl)); HEK293T overexpressing SLC46A1; higher = less ribozyme self-cleavage, higher mRNA level; details: without (6R,S)-folinic acid; ligand present: no
Experimental: (§2)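 Hammerhead (sTRSV) ribozyme switch libraries with a ligand aptamer grafted on stem I and a randomized N4-6 loop II, cloned into the 3' UTR of mCherry and transiently transfected into HEK293T cells; RNA-Seq 72 h post transfection with ligand added 1 h before transfection; RNA read count / plasmid DNA read count normalized to the non-cleaving sTRSVctl (x100), log10; sequences with >100 DNA reads. FACS-Seq: lentiviral library sorted into 6 bins after 48 h ligand, log-normal fit mean of mCherry/BFP scaled to controls. Printed sequences are partial switch sequences.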

(6R,S)-folinic acid [3] = variants of: B1; experiment: FACS-Seq fitted mean relative fluorescence mCherry/BFP with ligand (log10 relative fluorescence); HEK293T overexpressing SLC46A1; ligand concentration (+) FACS-Seq: 6 mM; higher = higher reporter protein expression; details: with (6R,S)-folinic acid; ligand present: yes
Method in brief: as §1

(6R,S)-folinic acid [4] = variants of: B1; experiment: normalized RNA/DNA level with ligand (relative to sTRSVctl = 100) (log10 (% of sTRSVctl)); HEK293T overexpressing SLC46A1; ligand concentration (+) RNA-Seq: 6 mM; higher = less ribozyme self-cleavage, higher mRNA level; details: with (6R,S)-folinic acid; ligand present: yes
Experimental: as §2

Variant | FACS-Seq fitted mean (log10) ((6R,S)-folinic acid [1]) | normalized RNA/DNA level without ligand (log10) ((6R,S)-folinic acid [2]) | FACS-Seq fitted mean (log10) ((6R,S)-folinic acid [3]) | normalized RNA/DNA level with ligand (log10) ((6R,S)-folinic acid [4])
AACUGG | 0.3585 ± 0.0022 | 1.936 ± 0.013 | 0.657 ± 0.038 | 2 ± 0.07
GAGGCA | 0.286 ± 0.031 | 2.017 ± 0.0044 | 0.296 ± 0.25 | 2.05 ± 0.026
GAGCAG | 0.523 ± 0.06 | 1.96 ± 0.004 | 0.688 ± 0.3 | 2.02 ± 0.058
GAGCAU | 0.407 ± 0.06 | 1.979 ± 0.015 | 0.546 ± 0.41 | 2.016 ± 0.015
GAGCAC | 0.00982 ± 0.061 | 2.002 ± 0.02 | -0.159 ± 0.38 | 2.042 ± 0.0057
UAGCAU | 0.36 ± 0.07 | 1.942 ± 0.0083 | 0.328 ± 0.2 | 2 ± 0.042
UAGCAG | 0.207 ± 0.14 | 1.755 ± 0.0028 | 0.401 ± 0.18 | 1.957 ± 0.019
UAGACG | 0.218 ± 0.052 | 1.754 ± 0.0068 | 0.17 ± 0.055 | 1.97 ± 0.029
UAGACA | 0.386 ± 0.0059 | 1.967 ± 0.0049 | 0.455 ± 0.17 | 2 ± 0.029
UAGACU | 0.606 ± 0.02 | 2.0068 ± 0.00026 | 0.559 ± 0.038 | 1.98 ± 0.051
AAUAGA | 0.354 ± 0.04 | 1.96 ± 0.024 | 0.344 ± 0.043 | 2.01 ± 0.034
AAUAGG | 0.164 ± 0.037 | 1.877 ± 0.0074 | 0.334 ± 0.2 | 1.99 ± 0.028
UAUAGC | 0.469 ± 0.011 | 1.943 ± 0.018 | 0.395 ± 0.19 | 1.98 ± 0.036
UAUAGA | 0.233 ± 0.082 | 1.911 ± 0.003 | 0.417 ± 0.064 | 1.989 ± 0.013
CAGAUA | 0.631 ± 0.27 | 1.959 ± 0.008 | 0.663 ± 0.087 | 1.97 ± 0.027
CACUGG | 0.801 ± 0.11 | 1.962 ± 0.013 | 0.687 ± 0.052 | 2.03 ± 0.021
GAUAGC | 0.145 ± 0.061 | 1.962 ± 0.017 | 0.257 ± 0.081 | 2.022 ± 0.015
GAUAGA | 0.454 ± 0.051 | 1.959 ± 0.0082 | 0.537 ± 0.22 | 2 ± 0.021
CAGUAA | 0.289 ± 0.13 | 1.955 ± 0.0021 | 0.23 ± 0.14 | 1.99 ± 0.023
UAGGAC | 0.556 ± 0.12 | 1.982 ± 0.019 | 0.551 ± 0.11 | 2 ± 0.025
UAGGAU | 0.37 ± 0.051 | 1.9235 ± 0.00039 | 0.358 ± 0.23 | 2 ± 0.052
UAGGAA | 0.503 ± 0.15 | 1.884 ± 0.01 | 0.822 ± 0.011 | 1.98 ± 0.038
CAGCUG | 0.118 ± 0.025 | 2.073 ± 0.01 | 0.1 ± 0.12 | 2.06 ± 0.022
AAGAUA | -0.141 ± 0.082 | 1.959 ± 0.0077 | -0.581 ± 0.18 | 1.994 ± 0.015

Variant | FACS-Seq fitted mean (log10) ((6R,S)-folinic acid [1]) | normalized RNA/DNA level without ligand (log10) ((6R,S)-folinic acid [2]) | FACS-Seq fitted mean (log10) ((6R,S)-folinic acid [3]) | normalized RNA/DNA level with ligand (log10) ((6R,S)-folinic acid [4])
AAGAUU | 0.318 ± 0.11 | 2.007 ± 0.0072 | 0.312 ± 0.032 | 2.02 ± 0.022
AAGAUC | 0.442 ± 0.061 | 2.04 ± 0.0043 | 0.504 ± 0.1 | 2.02 ± 0.029
AAGAUG | 0.3831 ± 0.00047 | 1.8871 ± 0.00048 | 0.235 ± 0.29 | 1.997 ± 0.018
UAGGGU | 0.607 ± 0.2 | 1.885 ± 0.015 | 0.604 ± 0.026 | 1.98 ± 0.049
UAGGGA | 0.295 ± 0.13 | 1.8512 ± 0.0012 | 0.501 ± 0.29 | 2 ± 0.03
UAGGGG | 0.0613 ± 0.073 | 1.648 ± 0.0041 | 0.172 ± 0.14 | 1.97 ± 0.04
GAGUGC | 0.283 ± 0.14 | 1.944 ± 0.0043 | 0.338 ± 0.15 | 2.03 ± 0.039
GAGUGA | 0.213 ± 0.11 | 1.96 ± 0.023 | 0.443 ± 0.15 | 2 ± 0.043
GAGUGU | 0.00433 ± 0.11 | 1.97 ± 0.01 | 0.322 ± 0.027 | 2.04 ± 0.025
GAGUGG | 0.427 ± 0.07 | 1.914 ± 0.0062 | 0.493 ± 0.18 | 2.01 ± 0.046
AACUUA | 0.0993 ± 0.1 | 1.96 ± 0.032 | 0.0419 ± 0.12 | 1.98 ± 0.033
AACUUG | 0.321 ± 0.0087 | 1.94 ± 0.0095 | 0.658 ± 0.031 | 1.996 ± 0.0088
AAGUCG | -0.00669 ± 0.0044 | 1.978 ± 0.0045 | 0.183 ± 0.19 | 2.0217 ± 0.00076
UAGAAG | 0.056 ± 0.02 | 1.654 ± 0.0022 | 0.456 ± 0.0016 | 1.963 ± 0.019
UAGAAA | 0.332 ± 0.024 | 1.9239 ± 0.0006 | 0.254 ± 0.35 | 2.01 ± 0.023
UAGAAU | 0.421 ± 0.089 | 1.921 ± 0.016 | 0.615 ± 0.02 | 2 ± 0.041
GAGUAG | 0.282 ± 0.0024 | 1.936 ± 0.017 | 0.0667 ± 0.095 | 1.99 ± 0.034
GAGUAC | 0.375 ± 0.091 | 1.952 ± 0.012 | 0.311 ± 0.16 | 2 ± 0.033
GAGUAA | 0.434 ± 0.18 | 1.9346 ± 0.0017 | 0.44 ± 0.3 | 1.99 ± 0.029
AAUAAC | 0.221 ± 0.049 | 1.979 ± 0.0049 | 0.377 ± 0.048 | 1.99 ± 0.035
AAUAAU | 0.5328 ± 0.0041 | 1.968 ± 0.0071 | 0.56 ± 0.14 | 2.003 ± 0.011
AAUAAA | -0.274 ± 0.037 | 1.971 ± 0.009 | -0.301 ± 0.1 | 2 ± 0.025
AAUAAG | 0.271 ± 0.2 | 1.9 ± 0.024 | 0.323 ± 0.13 | 1.98 ± 0.038
CAGGCU | 0.511 ± 0.14 | 2.055 ± 0.0024 | 0.544 ± 0.066 | 2.01 ± 0.036

Variant | FACS-Seq fitted mean (log10) ((6R,S)-folinic acid [1]) | normalized RNA/DNA level without ligand (log10) ((6R,S)-folinic acid [2]) | FACS-Seq fitted mean (log10) ((6R,S)-folinic acid [3]) | normalized RNA/DNA level with ligand (log10) ((6R,S)-folinic acid [4])
CAGAGG | -0.0517 ± 0.073 | 1.9 ± 0.016 | 0.0689 ± 0.4 | 2.002 ± 0.0054
CAGCAU | 0.411 ± 0.13 | 1.96 ± 0.014 | 0.546 ± 0.21 | 2.01 ± 0.027
UAUACC | 0.255 ± 0.057 | 2.011 ± 0.0036 | 0.126 ± 0.21 | 2.018 ± 0.014
UAUACG | 0.496 ± 0.089 | 1.76 ± 0.018 | 0.905 ± 0.26 | 1.96 ± 0.02
UAUACU | 0.4 ± 0.2 | 1.9765 ± 0.0012 | 0.253 ± 0.07 | 1.99 ± 0.015
GAGCCG | 0.537 ± 0.069 | 2.047 ± 0.0093 | 0.419 ± 0.15 | 2.03 ± 0.05
GAGCCU | 0.306 ± 0.041 | 2.076 ± 0.012 | 0.5133 ± 0.00087 | 2.062 ± 0.0057
GAGCCA | 0.191 ± 0.0078 | 2.023 ± 0.02 | 0.281 ± 0.24 | 2.02 ± 0.047
AAGUUA | 0.382 ± 0.14 | 1.973 ± 0.0048 | 0.443 ± 0.016 | 2.01 ± 0.031
AAGUUG | 0.479 ± 0.061 | 1.914 ± 0.013 | 0.582 ± 0.24 | 2.02 ± 0.054
UAGAGG | 0.0109 ± 0.02 | 1.561 ± 0.013 | 0.481 ± 0.11 | 1.9 ± 0.052
UAGAGA | 0.273 ± 0.12 | 1.807 ± 0.015 | 0.551 ± 0.33 | 1.99 ± 0.029
UAGAGC | 0.0862 ± 0.082 | 1.93 ± 0.022 | 0.445 ± 0.031 | 1.99 ± 0.048
GAGAGU | 0.347 ± 0.02 | 1.982 ± 0.013 | 0.471 ± 0.28 | 2.014 ± 0.0034
GAGAGG | 0.109 ± 0.067 | 1.901 ± 0.012 | 0.336 ± 0.41 | 2.03 ± 0.026
GAGAGA | 0.2 ± 0.041 | 1.946 ± 0.011 | 0.279 ± 0.16 | 2.01 ± 0.038
UAGCGG | -0.127 ± 0.027 | 1.671 ± 0.0027 | 0.217 ± 0.06 | 1.96 ± 0.023
CAGACC | 0.131 ± 0.097 | 2.04 ± 0.012 | 0.261 ± 0.16 | 1.99 ± 0.031
CAGACA | 0.583 ± 0.12 | 2.017 ± 0.00058 | 0.769 ± 0.2 | 1.98 ± 0.02
GACUUG | 0.321 ± 0.035 | 1.956 ± 0.018 | 0.389 ± 0.13 | 1.99 ± 0.039
AAGACG | 0.519 ± 0.038 | 1.92 ± 0.0073 | 0.622 ± 0.38 | 2 ± 0.058
AAGACA | 0.531 ± 0.012 | 1.985 ± 0.0083 | 0.754 ± 0.13 | 2.01 ± 0.023
UAGCCU | 0.641 ± 0.044 | 2.02 ± 0.045 | 0.19 ± 0.0051 | 2.04 ± 0.037
UAGCCG | 0.635 ± 0.13 | 1.86 ± 0.036 | 0.409 ± 0.069 | 1.99 ± 0.041
